Experimental data reported in PMC11514473, “The transition state for coupled folding and binding of a disordered DNA binding domain resembles the unbound state” (Nucleic Acids Research, 2024).
Each block holds one binder with its values, some of them ahead of it. Where no end group is shown, it is not given here.

Key:
[1] = target: T1, CREB 285bZIP wild type (pseudo-WT, Cys to Ser) (human, UniProt P16220-1 285-339, C300S;C310S;C337S); test: NMR; two-fold excess DNA over dimer; basic region folds to helix; 10 mM Mg2+; 10 mM MES pH 6.5, 150 mM NaCl, 10 mM MgCl2, 0.05% Tween-20, 25 C; NMR: 10 mM Tris-d11, 150 mM NaCl, 10 mM MgCl2, 1 mM NaN3, 5% D2O (NOE at 25 C); details: protein: recombinant; tags: extra N-terminal Gly after TEV cleavage; His6-GB1 removed; chain copies: 2; label: none; blunt, self-complementary, 2 copies
T1 sequence: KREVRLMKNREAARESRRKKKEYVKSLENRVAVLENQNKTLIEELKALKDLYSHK

[2] = target: T2, CREB 285bZIP (bZIP domain of human cAMP-response element binding protein, residues 285-339, cysteines … (human)); test: stopped-flow urea refolding kinetics (intrinsic tyrosine fluorescence); 285bZIP in 8 M urea mixed 1:10 with buffer of lower urea concentrations; 2.2, 4.5 and 9.1 uM CREB; excitation 278 nm, 305 nm cut-off filter; 25.0 C; traces fit to a 2-state reversible 2P to P2 model; L and k1 extrapolated by straight line fits to the absence of urea; dimer to monomers; details: both partners purified
T2 chain: T1 sequence

B1: symmetric CRE DNA (NMR) (dsDNA)
DNA 1: AGATGACGTCATCT
DNA 2: AGATGACGTCATCT
binding result [1]: binds

Kd [2]: 11 ± 2 nM
kon [2]: 7.1e+06 ± 500000 M⁻¹ s⁻¹
B2: CREB 285bZIP (bZIP domain of human cAMP-response element binding protein, residues 285-339, cysteines replaced with serines) (domain or fragment)
chain: T1 sequence
modifications: also: homodimer
